The chains are these.
B1: ZNF449 (parent)
chain: EPHKCPECGKRFLRSSDLYRHQRL

Among the data in the supplement of paper PMC10567573 are protein stability index values, retold here.
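Also: lentivirally expressed fusions sorted by FACS into six bins by GFP to DsRed ratio, PSI derived from sequencing read proportions per bin multiplied by bin number.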

The variants in this data set derive from B1. Description: protein stability index of a GFP-peptide fusion (GPS, HEK-293T) (PSI 1-6); higher = more stable. The settings on record: c terminus: a fixed tail appended.
For the variant EPHKCPECTKRFLRSSDLYRHQRL [G9T], the protein stability index is 2.32. For EPHKCPECPKRFLRSSDLYRHQRL [G9P] the value was 2.82; for EPHKCPECEKRFLRSSDLYRHQRL [G9E], 3.15; for EPHKCPECNKRFLRSSDLYRHQRL [G9N], 3.14. Under EPHKCPECGKRFLRSSDLYVHQRL [R20V] stands 4.02; under EPHKCPECGKRFLRSSDLYCHQRL [R20C], 3.69. For EPHKCPECGKLFLRSSDLYRHQRL [R11L], the protein stability index worked out at 4.57. Regarding EPHKCPECGKFFLRSSDLYRHQRL [R11F], the protein stability index was 4.41. Under EPHKCPECGKDFLRSSDLYRHQRL [R11D] stands 4.27; under EPHKCPECGKAFLRSSDLYRHQRL [R11A], 4.71; under EPHKCPECGKRFLRSSDLYRLQRL [H21L], 2.4. For EPHKCPECGKRFLRSSDLYRFQRL [H21F] the value was 2.25. Under EPHKCPECGKRFLRSSDLYREQRL [H21E] stands 2.15. Consider EPHKCPECGKRFLRSSDLYRPQRL [H21P], for which the protein stability index was found to be 2.14. For EPHKCPECGKRFLRSSDLYRVQRL [H21V] the value was 2.11. For EPHKCPECGKRFLRNSDLYRHQRL [S15N] the value was 3.51; for EPHKCPECGKRFLRDSDLYRHQRL [S15D], 3.81. Under EPHKCPECGKRFLRRSDLYRHQRL [S15R] stands 3.53.

As to EPHKCPECGKRFLRTSDLYRHQRL [S15T], the protein stability index worked out at 3.9.

Turning to EPHKCPECGKRFLRESDLYRHQRL [S15E], the protein stability index amounted to 4.54. Under EPHKCPECGKRFLRHSDLYRHQRL [S15H] stands 3.64; under EPHKCPECGKRFLRYSDLYRHQRL [S15Y], 4.03; under EPHKCPECGKRFLRFSDLYRHQRL [S15F], 3.51. With EPHKCPECGKRFLRISDLYRHQRL [S15I], the protein stability index came out at 3.27. For EPHKCPECGKRFLRKSDLYRHQRL [S15K] the value was 4.27; for EPHKCPLCGKRFLRSSDLYRHQRL [E7L], 3.51; for EPHKCPQCGKRFLRSSDLYRHQRL [E7Q], 3.62. EPHKCPHCGKRFLRSSDLYRHQRL [E7H]: the protein stability index was found to be 3.65. For EPHKCPECGKRFLLSSDLYRHQRL [R14L] the value was 3.51. In the case of EPHKCPECGKRFLQSSDLYRHQRL [R14Q], the protein stability index was 3.36. Under EPHKCPECGKRFLWSSDLYRHQRL [R14W] stands 2.75; under EPYKCPECGKRFLRSSDLYRHQRL [H3Y], 4.7. Under EPGKCPECGKRFLRSSDLYRHQRL [H3G] stands 3.02; under EPHKCPECGKRFLRSSDLYRHQRH [L24H], 4.18; under EPHKCPECGKRFLRSSDLYRHQRG [L24G], 4.52. As to EPHKCPECGKRFLRSSDLYRHQRY [L24Y], the protein stability index is 3.31. For EPHKCPECGKRFLRSSDLYRHQRQ [L24Q] the value was 4.6; for EPHKCPECGKRFLRSSDNYRHQRL [L18N], 2.67.

For EPHKCPECGKRFLRSSDYYRHQRL [L18Y], the protein stability index is 2.97.

As to EPHKCPECGKRFLRSSDIYRHQRL [L18I], the protein stability index was 2.52. As to EPHKCPECGKRFPRSSDLYRHQRL [L13P], the protein stability index was determined as 3.74. For EPHKTPECGKRFLRSSDLYRHQRL [C5T] the value was 2.79. For EPHKKPECGKRFLRSSDLYRHQRL [C5K] the value was 4. For EPHKYPECGKRFLRSSDLYRHQRL [C5Y] the value was 3.14. As to EPHKWPECGKRFLRSSDLYRHQRL [C5W], the protein stability index turned out to be 3.01. For EPHICPECGKRFLRSSDLYRHQRL [K4I] the value was 4.71; for EPHGCPECGKRFLRSSDLYRHQRL [K4G], 3.68; for EPHDCPECGKRFLRSSDLYRHQRL [K4D], 4.36. Under EPHKCPECGARFLRSSDLYRHQRL [K10A] stands 3.97; under EPHKCPECGFRFLRSSDLYRHQRL [K10F], 2.52; under EPHKCPECGHRFLRSSDLYRHQRL [K10H], 3.15. Under EPHKCPECGKRFLRSSDLYRHQHL [R23H] stands 3.84; under EPHKCPECGKRFLRSSDLYRHQTL [R23T], 4.01. As to EPHKCPECGKRFLRSSDLYRHQVL [R23V], the protein stability index is 3.16.

As to EPHKCPECGKRFLRSSDLYRHQLL [R23L], the protein stability index was 3.7. Under EPHKCPECGKRFLRSSDLYRHQML [R23M] stands 3.47. For EPHKCPECGKRFLRSEDLYRHQRL [S16E] the value was 4.99; for EPHKCPECGKRFLRSIDLYRHQRL [S16I], 3.26.

In the case of EPHKCPECGKRFLRSRDLYRHQRL [S16R], the protein stability index was 3.52. Regarding EPHKCPECGKRFLRSSDLRRHQRL [Y19R], the protein stability index stood at 3.55. Under EPHKCPECGKRFLRSSDLLRHQRL [Y19L] stands 4.04; under EPHKCPECGKRFLRSSDLMRHQRL [Y19M], 3.65.

Regarding EPHKCPECGKRFLRSSDLWRHQRL [Y19W], the protein stability index is 2.86. Under EPHKCPECGKRFLRSSDLHRHQRL [Y19H] stands 3.99; under EFHKCPECGKRFLRSSDLYRHQRL [P2F], 3.17; under ENHKCPECGKRFLRSSDLYRHQRL [P2N], 3.37. For the variant ESHKCPECGKRFLRSSDLYRHQRL [P2S], the protein stability index turned out to be 4.41.

For EPHKCPEIGKRFLRSSDLYRHQRL [C8I], the protein stability index worked out at 3.06.

With EPHKCPETGKRFLRSSDLYRHQRL [C8T], the protein stability index came out at 3.36. Under EPHKCPEMGKRFLRSSDLYRHQRL [C8M] stands 3.05; under EPHKCPEDGKRFLRSSDLYRHQRL [C8D], 4.03. As for EPHKCPECGKRFLRSSDLYRHIRL [Q22I], the protein stability index amounted to 2.91.

Take EPHKCPECGKRFLRSSDLYRHGRL [Q22G]: the protein stability index turned out to be 2.83.

On to EPHKCPECGKRFLRSSDLYRHPRL [Q22P], for which the protein stability index came to 2.4. In the case of PPHKCPECGKRFLRSSDLYRHQRL [E1P], the protein stability index worked out at 3.19. For the variant MPHKCPECGKRFLRSSDLYRHQRL [E1M], the protein stability index is 2.89. For HPHKCPECGKRFLRSSDLYRHQRL [E1H] the value was 3.45; for NPHKCPECGKRFLRSSDLYRHQRL [E1N], 2.83; for EPHKCQECGKRFLRSSDLYRHQRL [P6Q], 3.68.

Turning to EPHKCGECGKRFLRSSDLYRHQRL [P6G], the protein stability index worked out at 3.5. For EPHKCLECGKRFLRSSDLYRHQRL [P6L] the value was 3.38; for EPHKCVECGKRFLRSSDLYRHQRL [P6V], 3.57.

For EPHKCNECGKRFLRSSDLYRHQRL [P6N], the protein stability index is 4.17.

Consider EPHKCHECGKRFLRSSDLYRHQRL [P6H], for which the protein stability index came to 3.91. Under EPHKCPECGKRFLRSSRLYRHQRL [D17R] stands 2.34. For EPHKCPECGKRFLRSSWLYRHQRL [D17W] the value was 1.72; for EPHKCPECGKRFLRSSQLYRHQRL [D17Q], 2.59; for EPHKCPECGKRFLRSSLLYRHQRL [D17L], 2.81.

With EPHKCPECGKRFLRSSALYRHQRL [D17A], the protein stability index was found to be 2.32.

In the case of EPHKCPECGKRFLRSSNLYRHQRL [D17N], the protein stability index is 2.22.

As to EPHKCPECGKRFLRSSYLYRHQRL [D17Y], the protein stability index is 2.21. Under EPHKCPECGKRELRSSDLYRHQRL [F12E] stands 2.34; under EPHKCPECGKRSLRSSDLYRHQRL [F12S], 1.86; under EPHKCPECGKRHLRSSDLYRHQRL [F12H], 3.73.
